Reference: publication PMC4447949, “Structures of the Ets Protein DNA-binding Domains of Transcription Factors Etv1, Etv4, Etv5, and Fev” (The Journal of Biological Chemistry, 2015)

Key:
Settings in all cases: protein: recombinant; tags: N-terminal His6 removed by TEV (leaves SM); blunt
[1] = molecular target: T1, Etv1 C416S (human, UniProt P50549 326-429, C416S); test: EMSA; 2 nM probe; EMSA: 50 mM Tris-HCl pH 7.5, 50 mM NaCl, 2 mM MgCl2, 0.01% Tween 20, 5% glycerol, 1 h at room temperature; proteins reduced with 10 mM TCEP unless stated; 10% native PAGE
[2] = molecular target: Etv1 K404A (human, UniProt P50549 326-429, K404A); test: as above
[3] = molecular target: T1, Etv1 C416S; test: EMSA; 0.1 nM probe; EMSA: 50 mM Tris-HCl pH 7.5, 50 mM NaCl, 2 mM MgCl2, 0.01% Tween 20, 5% glycerol, 1 h at room temperature; proteins reduced with 10 mM TCEP unless stated; 10% native PAGE
[4] = molecular target: Etv1 R394A (human, UniProt P50549 326-429, R394A); test: EMSA; 2 nM probe; 10 mM TCEP; EMSA: 50 mM Tris-HCl pH 7.5, 50 mM NaCl, 2 mM MgCl2, 0.01% Tween 20, 5% glycerol, 1 h at room temperature; proteins reduced with 10 mM TCEP unless stated; 10% native PAGE
[5] = molecular target: T2, Etv1 Ets domain WT (reduced monomer) (human, UniProt P50549 326-429); test: as above
[6] = molecular target: Etv1 Y396F (human, UniProt P50549 326-429, Y396F); test: as above
[7] = molecular target: T3, Etv1 R391A (human, UniProt P50549 326-429, R391A); test: as above
[8] = molecular target: T4, Etv1 S334E (human, UniProt P50549 326-429, S334E); test: EMSA; 0.1 nM probe; 10 mM TCEP; EMSA: 50 mM Tris-HCl pH 7.5, 50 mM NaCl, 2 mM MgCl2, 0.01% Tween 20, 5% glycerol, 1 h at room temperature; proteins reduced with 10 mM TCEP unless stated; 10% native PAGE
[9] = molecular target: Etv1 Y395F (human, UniProt P50549 326-429, Y395F); test: as above
[10] = molecular target: Etv1 D387A (human, UniProt P50549 326-429, D387A); test: as above
[11] = molecular target: Etv1 Y329S-P427S (human, UniProt P50549 326-429, Y329S;P427S); test: as above
[12] = molecular target: T2, Etv1 Ets domain WT (reduced monomer); test: as above
[13] = molecular target: T3, Etv1 R391A; test: as above
[14] = molecular target: T4, Etv1 S334E; test: EMSA; 2 nM probe; 10 mM TCEP; saturates at 35% of probe; EMSA: 50 mM Tris-HCl pH 7.5, 50 mM NaCl, 2 mM MgCl2, 0.01% Tween 20, 5% glycerol, 1 h at room temperature; proteins reduced with 10 mM TCEP unless stated; 10% native PAGE
[15] = molecular target: Etv1 Y397F (human, UniProt P50549 326-429, Y397F); test: EMSA; 2 nM probe; undetectable or below regression threshold; EMSA: 50 mM Tris-HCl pH 7.5, 50 mM NaCl, 2 mM MgCl2, 0.01% Tween 20, 5% glycerol, 1 h at room temperature; proteins reduced with 10 mM TCEP unless stated; 10% native PAGE
Sequence of Etv1 Y397F (P50549 326-429 Y397F): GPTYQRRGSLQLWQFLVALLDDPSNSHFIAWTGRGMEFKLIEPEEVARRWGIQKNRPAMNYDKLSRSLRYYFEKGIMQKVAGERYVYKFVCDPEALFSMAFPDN

T2 sequence (P50549 326-429): as the sequence (P50549 326-429 Y397F) above, with F72Y counted along it
T1 sequence (P50549 326-429 C416S): as the sequence (P50549 326-429 Y397F) above, with F72Y, C91S counted along it
T4 sequence (P50549 326-429 S334E): as the sequence (P50549 326-429 Y397F) above, with S9E, F72Y counted along it
T3 sequence (P50549 326-429 R391A): as the sequence (P50549 326-429 Y397F) above, with R66A, F72Y counted along it
Sequence of Etv1 K404A (P50549 326-429 K404A): as the sequence (P50549 326-429 Y397F) above, with F72Y, K79A counted along it
Sequence of Etv1 Y396F (P50549 326-429 Y396F): as the sequence (P50549 326-429 Y397F) above, with Y71F, F72Y counted along it
Sequence of Etv1 R394A (P50549 326-429 R394A): as the sequence (P50549 326-429 Y397F) above, with R69A, F72Y counted along it
Sequence of Etv1 D387A (P50549 326-429 D387A): as the sequence (P50549 326-429 Y397F) above, with D62A, F72Y counted along it
Sequence of Etv1 Y395F (P50549 326-429 Y395F): as the sequence (P50549 326-429 Y397F) above, with Y70F, F72Y counted along it
Sequence of Etv1 Y329S-P427S (P50549 326-429 Y329S/P427S): as the sequence (P50549 326-429 Y397F) above, with Y4S, F72Y, P102S counted along it

B1: Etv1ALF/Etv1ALR EMSA probe (dsDNA)
DNA 1: ATCTCACCGGAAGTGTAGCA
DNA 2: TGCTACACTTCCGGTGAGAT
**Q.** Which Kd [1] does the source give for B1 here?
**A.** 0.46 ± 0.06 nM

**Q.** Does B1 bind [2]?
**A.** no binding

**Q.** What about the Kd [3] of the same binder?
**A.** 0.26 ± 0.06 nM

**Q.** And the Kd [4]?
**A.** 276 ± 62.7 nM

**Q.** What about the Kd [5] of the same binder?
**A.** 0.27 ± 0.028 nM

**Q.** And the Kd [6]?
**A.** 2640 ± 935 nM

**Q.** And the Kd [7]?
**A.** 11.8 ± 1.48 nM

**Q.** And the Kd [8]?
**A.** 0.94 ± 0.51 nM

**Q.** What about the Kd [9] of the same binder?
**A.** 1.35 ± 1.05 nM

**Q.** What about the Kd [10] of the same binder?
**A.** 0.19 ± 0.03 nM

**Q.** And the Kd [11]?
**A.** 0.31 ± 0.06 nM

**Q.** And the Kd [12]?
**A.** 0.59 ± 0.15 nM

**Q.** And the Kd [13]?
**A.** 8.6 ± 1.68 nM

**Q.** And the Kd [14]?
**A.** 0.89 ± 0.32 nM

**Q.** Does B1 bind [15]?
**A.** no binding
